Data published in the supplement of paper PMC9170038.

Test system: K4 kissing-loop RNA reporter
Experiment: apparent KD of K4 kissing-loop reporter; higher = weaker reporter binding
Settings: Eterna round: R107
Description: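 RNA-MaP round R107: designed RNA switches with theophylline, tryptophan, arginine or FMN aptamers are transcribed on-chip within common flanks. They are titrated with a labelled K4 kissing-loop RNA reporter in RNA-MaP buffer (100 mM Tris pH 7.5, 80 mM KCl, 4 mM MgCl2), without ligand or with the indicated ligand. Median apparent KD per design.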

[1] = input ligand: theophylline 20 uM
[2] = input ligand: tryptophan 2.4 mM
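Also: bound reporter read as fluorescence of individual clusters on recovered sequencing chips by microscopy, with normalized cluster intensities fitted with a binding model.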

| Sequence | apparent KD of K4 kissing-loop reporter (input ligand: FMN 200 uM) | apparent KD of K4 kissing-loop reporter (input ligand: arginine 13.2 mM) | apparent KD of K4 kissing-loop reporter (input ligand: none) | apparent KD of K4 kissing-loop reporter [1] | apparent KD of K4 kissing-loop reporter [2] |
| --- | --- | --- | --- | --- | --- |
| GCGCGUCAUGUCAGCGGUGACACUGUCGAUACCAGCGCCGUAAGGCGCCCUUGGCAGCGACGUGCUGGAGUGAUGUUCCAGCGUC [#2 Exclusion - Theophylline A Attempt #20 (HarryS)] | 178 nM | 110 nM | 149 nM | 126 nM | 141 nM |
| GCGGCGGGCCAAGGAUAUAUAUUGGAGUGAUGUUGUUCAUUUAUUUGAGCUAGUGAUGUUGGUCAAAUAGAAGGUGGCCCGCCGC [whbob_Ex_FMNB__2th217] | 56.5 nM | 34.6 nM | 59.3 nM | 44.8 nM | 62 nM |
| GCGGUGUUAUGCCCGAGGGUAUAGUUGCCAAAGGAUAUGAUUGUUGUCAGAAGGUUGCGCUUGAUCAGUGAUGUUGGUCUCCAAC [theeternabot_sameState_KL_FMN_A_12] | 398 nM | 275 nM | 373 nM | 342 nM | 337 nM |
| GCGUGCCAUGCAGGAUAUAGUUGUUCGAGUGAUGUUCGAGCCUUGCUAAGUUCGGAGCAUCAGCUUCUAGAAGGGCAUGGCACGC | 156 nM | 205 nM | 618 nM | 241 nM | 347 nM |
| GCUAGGCAUGCAGGAUAUCGUGGAGUGAUGUUCCGUUGGCUGCUAGCGGAAAACGCUAGCAGCCUACGAGAAGGGCAUGCCUAGC | 192 nM | 356 nM | 425 nM | 410 nM | 368 nM |
| GCUAUGGUAGGAAGGAGCGCUACUUUGUUUUUACGAGUGAUGUUCGGUAGCAGAGUGUUAAAGCAGGUAGGUCGCCUACUAUAGC [Arginine B K4 19] | 225 nM | 244 nM | 244 nM | 307 nM | 280 nM |
| GCUCGGGAGUGAUGUUCCAAGUGGUGUUAACGAGGACCGGUACGGCCGCCACUCGAUACGGCCGGACCGUAGGAUAAACUGGAGC [Same State - Tryptophan A (Freestyle 12)] | 149 nM | 110 nM | 125 nM | 185 nM | 144 nM |
| GGACGACAGGCGGCCGCCACUCACAGCAGCCAGCGAGUGAUGUUCGUAGCGGAGUGAUGUUCCGAGAGGACCGGGUCUGCAGUCC [Same State Tryptophan B GF 17] | 246 nM | 178 nM | 224 nM | 168 nM | 223 nM |
| GGACGACAGUCGGCCGCCACUCACAGCCGCCAGUGAUGUUGGAUUGUAGCGGAGUGAUGUUUCGCGAGGACCGGGACUGCAGUCC [Same State Tryptophan B GF 15] | 417 nM | 380 nM | 455 nM | 413 nM | 460 nM |
| GGAGGCCAGGCCUGCGAAGUGAUGUUUUGACGAGGACCGGUACGGCCGCCACUCGAAUGUUCUAUCAUCGUACGAACUUCUGCGU [theeternabot_exclusion_KL_Trp_A_26] | 593 nM | 415 nM | 496 nM | 527 nM | 394 nM |
| GGAGGUUGGUGCGAUACCAGACCUGCAGUGAUGUUGCGCCAAAGUGAGUGAUGUUCACCGGUCCCUUGGCAGCGCGUCCCUUUAG [Same State Theophylline B GF 15] | 848 nM | 729 nM | 1190 nM | 707 nM | 860 nM |
| GGAGUUACCUGGGAUACCAGCCGGAGGCCCAGAGCUCGGAGUGAUGUUCUGGGAUGUUUCGGCCCUUGGCAGCUCUGGGUCUCCC [#2 Exclusion - Theophylline B Attempt #6 (HarryS)] | 1520 nM | 512 nM | 535 nM | 505 nM | 521 nM |
| GGAUAGGACAGAGGAUAUCCAGUGAUGUUGGAGAAUUCUCCUUCAACAUGUCACAAAAGUGGCAUGGGAGAAGGCUGUCCUAUCG [Mod of Eli's FmnBX 29 v2] | 388 nM | 120 nM | 122 nM | 99.7 nM | 108 nM |
| GGAUAGGACAGAGGAUAUCUCUGAGGCAAGAAAACUUGUCUCAAAAGAGAUGACUCAGUGAUGUUGAGAGAAGGCUGUCCUAUCG [FmnBX 8 - #SwitchBubble #StaticStem] | 256 nM | 143 nM | 144 nM | 147 nM | 153 nM |
| GGAUAGGACAGAGGAUAUGGUAGUGAUGUUACCAAACUGGUUAUUAAUGUCAGAAAACUGGCAAAUCCAGAAGGCUGUCCUAUCG [KL-XFMN-B13] | 180 nM | 63.8 nM | 75.7 nM | 60.5 nM | 62.9 nM |
| GGAUAGGACAGAGGAUAUGGUAGUGAUGUUACCAACAGCCUACUGUCAAUAAAGACGGUUGGCUGACCAGAAGGCUGUCCUAUCG [Mod of Eli's FmnBX 26 v1] | 564 nM | 132 nM | 145 nM | 148 nM | 142 nM |
| GGAUAGGACUGAGGAUAUGGGCUAGGCAAGAAUAACUUGUCUAGCAAAUCCAUGAGGAGUGAUGUUCCAGAAGGCGGUCCUAUCG [FmnBX 1 U10+G76] | 601 nM | 127 nM | 131 nM | 173 nM | 231 nM |
| GGAUAGGAUAGAGGAUAUGGUUUAUGCAAGAAUAACUUAUCGUGUAAAUCCAUAGGGAGUGAUGUUCCAGAAGGCUGUCCUAUCG [MatMod 12 - Jieux - Exclusion - FMN B] | 335 nM | 201 nM | 239 nM | 246 nM | 173 nM |
| GGAUAUGUAACAGAUACCAGCCGACGACAGUCACUGUGUCAUGUAGUGAUGUUACAAUCUGGCCCUUGGCAGCUGUCUCUGGUUU [theeternabot_exclusion_KL_Theo_B_27] | 310 nM | 214 nM | 278 nM | 250 nM | 250 nM |
| GGAUGGUAGGCGGCCGCCACUAAAAGUGAACACAUACAAGCCAGUGAUGUUGGUAUGAUGGACUAUAGGACCGGGCCUAGAUAGA [Exclusion - Tryptophan B (Freestyle 6)] | 468 nM | 410 nM | 522 nM | 454 nM | 466 nM |
| GGCACUUUUGGUAGACACCAUCUACCUCUAUAGGAUAUGCCGAAAGGCAGAAGGAUAGACCUACAGAGUGAUGUUCUGCGUGCCU | 686 nM | 801 nM | 1230 nM | 946 nM | 849 nM |
